This is an account of results in US20130090249A1 (CENTRE NATIONAL DE LA RECHERCHE SCIENTIFIQUE CNRS, published 2013).

One assay has as its target T1, DN-Lingo-1-HA (human, UniProt Q96FE5 42-577).
T1 construct: Residues 1-577 are counted on the 620-amino-acid human Lingo-1 (NP-116197); Expressed in HEK-293 cells; also called DN-HA; HA-tagged dominant negative of Lingo-1
T1 sequence: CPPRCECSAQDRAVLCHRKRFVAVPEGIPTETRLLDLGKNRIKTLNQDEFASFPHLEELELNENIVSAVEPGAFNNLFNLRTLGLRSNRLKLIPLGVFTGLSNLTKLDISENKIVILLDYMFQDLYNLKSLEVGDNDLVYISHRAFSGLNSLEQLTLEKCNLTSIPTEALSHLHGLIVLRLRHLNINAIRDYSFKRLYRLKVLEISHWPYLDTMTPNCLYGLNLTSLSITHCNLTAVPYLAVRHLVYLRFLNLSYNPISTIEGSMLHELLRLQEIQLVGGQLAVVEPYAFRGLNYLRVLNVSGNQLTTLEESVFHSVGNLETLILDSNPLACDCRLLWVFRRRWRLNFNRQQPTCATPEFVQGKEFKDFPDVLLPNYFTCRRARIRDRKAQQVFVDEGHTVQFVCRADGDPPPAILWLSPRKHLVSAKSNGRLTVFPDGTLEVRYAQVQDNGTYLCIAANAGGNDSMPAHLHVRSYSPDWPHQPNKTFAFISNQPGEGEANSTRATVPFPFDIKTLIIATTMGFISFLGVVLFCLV
Put plainly: BRET competition in live HEK-293 cells; the competitor may take the place of either the RLuc or the YFP partner. How it is done: (§1) HEK-293 cells were transfected with the Lingo-1-RLuc and Lingo-1-YFP fusion proteins (the donor/acceptor ratio remains constant) and increasing concentrations of the whole Lingo-1 protein (Lingo-1-HA, amino acids 1-620) or the dominant negative thereof (DN-HA, amino acids 1-577) tagged with HA. The BRET measurement was carried out 48 hours after the transfection on live cells.
(§2) The BRET signal obtained between the Lingo-1-RLuc and Lingo-1-YFP proteins is therefore specific and can be modulated. […] In addition, when increasing concentrations of HA-tagged Lingo-1 protein were added (Lingo-1-HA at 0, 200, 400, 800, 1600 and 2600 ng), the BRET signal decreased (FIG. 5b); thereby making it possible to plot inhibition curves.
A general note: Bioluminescence resonance energy transfer reports proximity on the nanometre scale.

Another assay deals with T2, Lingo-1-HA (human, UniProt Q96FE5 42-620).
T2 construct: also called Lingo-HA; HA-tagged whole Lingo-1 protein
T2 sequence: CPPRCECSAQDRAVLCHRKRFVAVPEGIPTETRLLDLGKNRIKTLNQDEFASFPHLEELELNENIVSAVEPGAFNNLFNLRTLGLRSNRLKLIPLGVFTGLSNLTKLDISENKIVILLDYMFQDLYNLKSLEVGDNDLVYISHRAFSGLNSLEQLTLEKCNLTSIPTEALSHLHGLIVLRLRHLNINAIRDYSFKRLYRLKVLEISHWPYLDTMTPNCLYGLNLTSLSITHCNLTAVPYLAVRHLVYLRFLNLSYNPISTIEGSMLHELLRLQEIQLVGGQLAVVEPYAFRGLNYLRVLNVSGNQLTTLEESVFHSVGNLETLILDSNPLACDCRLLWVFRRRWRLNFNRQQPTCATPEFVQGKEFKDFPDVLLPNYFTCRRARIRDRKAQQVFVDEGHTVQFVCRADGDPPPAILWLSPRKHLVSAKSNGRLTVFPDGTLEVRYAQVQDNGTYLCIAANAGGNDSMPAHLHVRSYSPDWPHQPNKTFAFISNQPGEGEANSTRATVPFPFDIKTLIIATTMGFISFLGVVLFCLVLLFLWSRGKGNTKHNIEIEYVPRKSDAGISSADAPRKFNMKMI
The assay is described as above. How it is done: as §1, §2

B1: Lingo-1-RLuc (other)
chain: CPPRCECSAQDRAVLCHRKRFVAVPEGIPTETRLLDLGKNRIKTLNQDEFASFPHLEELELNENIVSAVEPGAFNNLFNLRTLGLRSNRLKLIPLGVFTGLSNLTKLDISENKIVILLDYMFQDLYNLKSLEVGDNDLVYISHRAFSGLNSLEQLTLEKCNLTSIPTEALSHLHGLIVLRLRHLNINAIRDYSFKRLYRLKVLEISHWPYLDTMTPNCLYGLNLTSLSITHCNLTAVPYLAVRHLVYLRFLNLSYNPISTIEGSMLHELLRLQEIQLVGGQLAVVEPYAFRGLNYLRVLNVSGNQLTTLEESVFHSVGNLETLILDSNPLACDCRLLWVFRRRWRLNFNRQQPTCATPEFVQGKEFKDFPDVLLPNYFTCRRARIRDRKAQQVFVDEGHTVQFVCRADGDPPPAILWLSPRKHLVSAKSNGRLTVFPDGTLEVRYAQVQDNGTYLCIAANAGGNDSMPAHLHVRSYSPDWPHQPNKTFAFISNQPGEGEANSTRATVPFPFDIKTLIIATTMGFISFLGVVLFCLVLLFLWSRGKGNTKHNIEIEYVPRKSDAGISSADAPRKFNMKMISRDPPVATMTSKVYDPEQRKRMITGPQWWARCKQMNVLDSFINYYDSEKHAENAVIFLHGNAASSYLWRHVVPHIEPVARCIIPDLIGMGKSGKSGNGSYRLLDHYKYLTAWFELLNLPKKIIFVGHDWGACLAFHYSYEHQDKIKAIVHAESVVDVIESWDEWPDIEEDIALIKSEEGEKMVLENNFFVETMLPSKIMRKLEPEEFAAYLEPFKEKGEVRRPTLSWPREIPLVKGGKPDVVQIVRNYNAYLRASDDLPKMFIESDPGFFSNAIVEGAKKFPNTEFVKVKGLHFSQEDAPDEMGKYIKSFVERVLKNEQ
notes: also called hLingo-1-RLuc
For B1, the binding result with DN-Lingo-1-HA and in the assay with Lingo-1-HA was “binds” each time.
